The text below walks through data of US20210246166A1 (Bayer, published 2021).

Numbered stars: 1 amine (or outer) side, 2 acyl side, 3 side chain; on linkers, the order of the positions; unused ones are H or OH. Bridge positions count the residues as written; N and C are the ends. Square brackets hold non-standard residues; d marks the D form. Ends that are not written are not given here. * marks the point of attachment. (N-Benzyl)D = (2S)-2-Amino-4-(benzylamino)-4-oxobutanecarboxylic acid, O=C(C[C@H](N[*:1])C(=O)[*:2])NCc1ccccc1; βDap = *Dap: Dap linked through its additional amino group, O=C([C@H](CN[*:1])N[*:3])[*:2]; X9 = (S)‑3‑(1-Pyrrolidine-2-yl)‑propionic acid, O=C(CC[C@@H]1CCCN1[*:1])[*:2]; X11 = (S)‑Piperidine‑3‑carboxylic acid, O=C([C@H]1CCCN([*:1])C1)[*:2]; X14 = (2,4-dioxoimidazolidin-1-yl)acetic acid, O=C1CN(CC(=O)*)C(=O)N1; Nip(3R) = O=C([C@@H]1CCCN([*:1])C1)[*:2]; Oic = O=C(O)[C@@H]1C[C@@H]2CCCC[C@@H]2N1; βPro(3S) = O=C([C@H]1CCN([*:1])C1)[*:2]; Pen = CC(C)(S)[C@H](N)C(=O)O; β3hP = O=C(O)C[C@@H]1CCCN1; NMeA = CN[C@@H](C)C(=O)O; Sar = CNCC(=O)O

Assay [1] deals with recombinant rat MASP2 active protease (amino acids 296-685, C-terminal His Tag) (rat, UniProt Q9JJS8 296-685). Put plainly: cell-based or functional assay.
Chain of recombinant rat MASP2 active protease (amino acids 296-685, C-terminal His Tag) (Q9JJS8 other isoform, or with tags, fused parts or gaps limits assumed): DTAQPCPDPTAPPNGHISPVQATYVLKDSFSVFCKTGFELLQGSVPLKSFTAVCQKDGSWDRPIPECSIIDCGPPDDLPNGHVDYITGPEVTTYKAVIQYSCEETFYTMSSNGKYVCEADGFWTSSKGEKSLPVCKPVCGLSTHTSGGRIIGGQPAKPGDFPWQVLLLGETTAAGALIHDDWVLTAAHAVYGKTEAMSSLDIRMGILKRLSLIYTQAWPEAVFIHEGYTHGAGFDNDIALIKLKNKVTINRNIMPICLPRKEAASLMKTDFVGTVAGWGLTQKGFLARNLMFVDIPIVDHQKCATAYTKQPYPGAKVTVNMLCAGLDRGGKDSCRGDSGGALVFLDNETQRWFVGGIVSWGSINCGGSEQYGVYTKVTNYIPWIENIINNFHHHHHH
The target in assay [2] is T1, recombinant rat MASP1 active protease (amino acids 302-704, C-terminal His Tag) (rat, UniProt Q8CHN8 302-704).
T1 sequence: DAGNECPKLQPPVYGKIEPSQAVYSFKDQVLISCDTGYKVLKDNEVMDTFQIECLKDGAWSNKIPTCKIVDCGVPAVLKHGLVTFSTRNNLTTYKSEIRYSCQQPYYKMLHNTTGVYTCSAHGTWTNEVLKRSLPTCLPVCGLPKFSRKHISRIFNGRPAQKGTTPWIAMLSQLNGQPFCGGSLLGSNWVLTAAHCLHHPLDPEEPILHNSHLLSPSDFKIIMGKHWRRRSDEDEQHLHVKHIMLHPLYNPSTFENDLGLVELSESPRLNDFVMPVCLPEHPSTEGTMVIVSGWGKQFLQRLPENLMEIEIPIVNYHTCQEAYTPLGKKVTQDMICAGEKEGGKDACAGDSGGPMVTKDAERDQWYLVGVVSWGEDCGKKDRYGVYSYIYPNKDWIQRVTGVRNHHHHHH
The assay can be described thus: cell-based or functional assay.

For AICSRSLP[Oic]I[Pen]IP[βDap]-OH (disulfide 3-11; also: Dap at position 14 joined through its 3-amino group) [Example 458: AIC+SRSLP-(Oic)-I-(Pen)+IP-(*Dap)-OH], in assay [1], the “rat MASP2 IC50” value is 100 nM. In addition, the “rat MASP1 IC50” value in assay [2] was 250 nM.

B1: Example 463: ((N-Me)G)-IC+SRSLP-(Oic)-I-(Pen)+IPDK-OH (peptide)
peptide: [Sar]ICSRSLP[Oic]I[Pen]IPDK-OH
modifications: disulfide 3-11; N-terminus assumed
SMILES: CC[C@H](C)[C@H](NC(=O)CNC)C(=O)N[C@H]1CSSC(C)(C)[C@@H](C(=O)N[C@H](C(=O)N2CCC[C@H]2C(=O)N[C@@H](CC(=O)O)C(=O)N[C@@H](CCCCN)C(=O)O)[C@@H](C)CC)NC(=O)[C@H]([C@@H](C)CC)NC(=O)[C@@H]2C[C@@H]3CCCC[C@@H]3N2C(=O)[C@@H]2CCCN2C(=O)[C@H](CC(C)C)NC(=O)[C@H](CO)NC(=O)[C@H](CCCNC(=N)N)NC(=O)[C@H](CO)NC1=O
For B1, the “rat MASP2 IC50” value in assay [1] was determined as 100 nM. Moreover, the “rat MASP1 IC50” value in assay [2] was 190 nM.

B2: Example 454: ((N-Me)G)-IC+SRSLP-(Oic)-I-(Pen)+IPN-OH (peptide)
peptide: [Sar]ICSRSLP[Oic]I[Pen]IPN-OH
modifications: disulfide 3-11; N-terminus assumed
SMILES: CC[C@H](C)[C@H](NC(=O)CNC)C(=O)N[C@H]1CSSC(C)(C)[C@@H](C(=O)N[C@H](C(=O)N2CCC[C@H]2C(=O)N[C@@H](CC(N)=O)C(=O)O)[C@@H](C)CC)NC(=O)[C@H]([C@@H](C)CC)NC(=O)[C@@H]2C[C@@H]3CCCC[C@@H]3N2C(=O)[C@@H]2CCCN2C(=O)[C@H](CC(C)C)NC(=O)[C@H](CO)NC(=O)[C@H](CCCNC(=N)N)NC(=O)[C@H](CO)NC1=O
B2: the “rat MASP2 IC50” value in assay [1] amounted to 79 nM. Moreover, in assay [2], the “rat MASP1 IC50” value stood at 127 nM.

B3: Example 460: ((S)-Piperidine-3-carboxylic acid)-IC+SRSLP-(Oic)-I-(Pen)+I-OH (peptide)
peptide: [X11]ICSRSLP[Oic]I[Pen]I-OH
modifications: disulfide 3-11; N-terminus assumed
SMILES: CC[C@H](C)[C@H](NC(=O)[C@H]1NC(=O)[C@H]([C@@H](C)CC)NC(=O)[C@@H]2C[C@@H]3CCCC[C@@H]3N2C(=O)[C@@H]2CCCN2C(=O)[C@H](CC(C)C)NC(=O)[C@H](CO)NC(=O)[C@H](CCCNC(=N)N)NC(=O)[C@H](CO)NC(=O)[C@@H](NC(=O)[C@@H](NC(=O)[C@H]2CCCNC2)[C@@H](C)CC)CSSC1(C)C)C(=O)O
For B3, the “rat MASP2 IC50” value in assay [1] worked out at 69 nM. Moreover, the “rat MASP1 IC50” value in assay [2] turned out to be 210 nM.

B4: Example 453: ((N-Me)G)-IC+SRSLP-(Oic)-I-(Pen)+IP-((S)-3-(1-Pyrrolidine-2-yl)-propionic acid)-OH (peptide)
peptide: [Sar]ICSRSLP[Oic]I[Pen]IP[X9]-OH
modifications: disulfide 3-11; N-terminus assumed
SMILES: CC[C@H](C)[C@H](NC(=O)CNC)C(=O)N[C@H]1CSSC(C)(C)[C@@H](C(=O)N[C@H](C(=O)N2CCC[C@H]2C(=O)N2CCC[C@H]2CCC(=O)O)[C@@H](C)CC)NC(=O)[C@H]([C@@H](C)CC)NC(=O)[C@@H]2C[C@@H]3CCCC[C@@H]3N2C(=O)[C@@H]2CCCN2C(=O)[C@H](CC(C)C)NC(=O)[C@H](CO)NC(=O)[C@H](CCCNC(=N)N)NC(=O)[C@H](CO)NC1=O
With B4, the “rat MASP2 IC50” value in assay [1] is 32 nM. Also, the “rat MASP1 IC50” value in assay [2] came to 38 nM.

B5: Example 456: ((N-Me)G)-IC+SRSLP-(Oic)-I-(Pen)+IP-((S)-Pyrrolidine-3-carboxylic acid)-OH (peptide)
peptide: [Sar]ICSRSLP[Oic]I[Pen]IP[βPro(3S)]-OH
modifications: disulfide 3-11; N-terminus assumed
SMILES: CC[C@H](C)[C@H](NC(=O)CNC)C(=O)N[C@H]1CSSC(C)(C)[C@@H](C(=O)N[C@H](C(=O)N2CCC[C@H]2C(=O)N2CC[C@H](C(=O)O)C2)[C@@H](C)CC)NC(=O)[C@H]([C@@H](C)CC)NC(=O)[C@@H]2C[C@@H]3CCCC[C@@H]3N2C(=O)[C@@H]2CCCN2C(=O)[C@H](CC(C)C)NC(=O)[C@H](CO)NC(=O)[C@H](CCCNC(=N)N)NC(=O)[C@H](CO)NC1=O
On to B5, for which, in assay [1], the “rat MASP2 IC50” value came to 30 nM. The “rat MASP1 IC50” value in assay [2] is 39 nM.

B6: Example 464: ((N-Me)G)-IC+SRSLP-(Oic)-I-(Pen)+IPGD-OH (peptide)
peptide: [Sar]ICSRSLP[Oic]I[Pen]IPGD-OH
modifications: disulfide 3-11; N-terminus assumed
SMILES: CC[C@H](C)[C@H](NC(=O)CNC)C(=O)N[C@H]1CSSC(C)(C)[C@@H](C(=O)N[C@H](C(=O)N2CCC[C@H]2C(=O)NCC(=O)N[C@@H](CC(=O)O)C(=O)O)[C@@H](C)CC)NC(=O)[C@H]([C@@H](C)CC)NC(=O)[C@@H]2C[C@@H]3CCCC[C@@H]3N2C(=O)[C@@H]2CCCN2C(=O)[C@H](CC(C)C)NC(=O)[C@H](CO)NC(=O)[C@H](CCCNC(=N)N)NC(=O)[C@H](CO)NC1=O
On to B6, for which, in assay [1], the “rat MASP2 IC50” value worked out at 120 nM. The “rat MASP1 IC50” value in assay [2] came to 94 nM.

Take [NMeA]ICSRSLP[Oic]I[Pen]IP[(N-Benzyl)D]-NH2 (disulfide 3-11) [Example 462: ((N-Me)A)-IC+SRSLP-(Oic)-I-(Pen)+IP-((N-Benzyl)D)-NH2]: the “rat MASP2 IC50” value in assay [1] amounted to 150 nM. The “rat MASP1 IC50” value in assay [2] was found to be 160 nM.

B7: Example 459: ((R)-Piperidine-3-carboxylic acid)-IC+SRSLP-(Oic)-I-(Pen)+I-OH (peptide)
peptide: [Nip(3R)]ICSRSLP[Oic]I[Pen]I-OH
modifications: disulfide 3-11; N-terminus assumed
SMILES: CC[C@H](C)[C@H](NC(=O)[C@H]1NC(=O)[C@H]([C@@H](C)CC)NC(=O)[C@@H]2C[C@@H]3CCCC[C@@H]3N2C(=O)[C@@H]2CCCN2C(=O)[C@H](CC(C)C)NC(=O)[C@H](CO)NC(=O)[C@H](CCCNC(=N)N)NC(=O)[C@H](CO)NC(=O)[C@@H](NC(=O)[C@@H](NC(=O)[C@@H]2CCCNC2)[C@@H](C)CC)CSSC1(C)C)C(=O)O
Turning to B7, the “rat MASP2 IC50” value in assay [1] turned out to be 51 nM. In assay [2], the “rat MASP1 IC50” value was 180 nM.

B8: Example 457: ((2,4-dioxoimidazolidin-1-yl)acetic acid)-IC+SRSLP-(Oic)-I-(Pen)+IPD-OH (peptide)
peptide: X14-ICSRSLP[Oic]I[Pen]IPD-OH
modifications: disulfide 2-10
SMILES: CC[C@H](C)[C@H](NC(=O)CN1CC(=O)NC1=O)C(=O)N[C@H]1CSSC(C)(C)[C@@H](C(=O)N[C@H](C(=O)N2CCC[C@H]2C(=O)N[C@@H](CC(=O)O)C(=O)O)[C@@H](C)CC)NC(=O)[C@H]([C@@H](C)CC)NC(=O)[C@@H]2C[C@@H]3CCCC[C@@H]3N2C(=O)[C@@H]2CCCN2C(=O)[C@H](CC(C)C)NC(=O)[C@H](CO)NC(=O)[C@H](CCCNC(=N)N)NC(=O)[C@H](CO)NC1=O
Consider B8, for which the “rat MASP2 IC50” value in assay [1] is 5 nM. Further, the “rat MASP1 IC50” value in assay [2] is 20 nM.

B9: Example 455: ((N-Me)G)-IC+SRSLP-(Oic)-I-(Pen)+IP-(beta-homo-P)-OH (peptide)
peptide: [Sar]ICSRSLP[Oic]I[Pen]IP[β3hP]-OH
modifications: disulfide 3-11; N-terminus assumed
SMILES: CC[C@H](C)[C@H](NC(=O)CNC)C(=O)N[C@H]1CSSC(C)(C)[C@@H](C(=O)N[C@H](C(=O)N2CCC[C@H]2C(=O)N2CCC[C@H]2CC(=O)O)[C@@H](C)CC)NC(=O)[C@H]([C@@H](C)CC)NC(=O)[C@@H]2C[C@@H]3CCCC[C@@H]3N2C(=O)[C@@H]2CCCN2C(=O)[C@H](CC(C)C)NC(=O)[C@H](CO)NC(=O)[C@H](CCCNC(=N)N)NC(=O)[C@H](CO)NC1=O
Take B9: in assay [1], the “rat MASP2 IC50” value was 32 nM. For the same molecule, the “rat MASP1 IC50” value in assay [2] worked out at 41 nM.
